T1: human EphA8 extracellular region-SEAP-His protein (human, UniProt P29322 28-542)
T1 construct: extracellular domain; also called hEphA8-SEAP-His
T1 sequence (looked up): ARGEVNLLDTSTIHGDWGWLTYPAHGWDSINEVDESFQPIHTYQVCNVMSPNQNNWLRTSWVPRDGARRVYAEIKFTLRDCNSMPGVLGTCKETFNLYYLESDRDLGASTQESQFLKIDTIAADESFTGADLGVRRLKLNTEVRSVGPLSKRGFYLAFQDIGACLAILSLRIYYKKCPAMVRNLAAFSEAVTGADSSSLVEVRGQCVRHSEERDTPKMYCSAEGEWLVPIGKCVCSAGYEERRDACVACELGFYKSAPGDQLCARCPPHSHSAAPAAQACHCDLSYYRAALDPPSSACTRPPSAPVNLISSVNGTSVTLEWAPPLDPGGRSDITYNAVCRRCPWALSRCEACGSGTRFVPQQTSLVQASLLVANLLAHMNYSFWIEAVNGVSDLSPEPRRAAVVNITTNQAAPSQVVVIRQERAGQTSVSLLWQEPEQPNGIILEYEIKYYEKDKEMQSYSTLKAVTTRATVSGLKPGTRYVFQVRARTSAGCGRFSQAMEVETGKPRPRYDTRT

T2: human EphA3 extracellular region-SEAP-His protein (human, UniProt P29320 21-541)
T2 construct: extracellular domain; also called hEphA3-SEAP-His
T2 sequence (looked up): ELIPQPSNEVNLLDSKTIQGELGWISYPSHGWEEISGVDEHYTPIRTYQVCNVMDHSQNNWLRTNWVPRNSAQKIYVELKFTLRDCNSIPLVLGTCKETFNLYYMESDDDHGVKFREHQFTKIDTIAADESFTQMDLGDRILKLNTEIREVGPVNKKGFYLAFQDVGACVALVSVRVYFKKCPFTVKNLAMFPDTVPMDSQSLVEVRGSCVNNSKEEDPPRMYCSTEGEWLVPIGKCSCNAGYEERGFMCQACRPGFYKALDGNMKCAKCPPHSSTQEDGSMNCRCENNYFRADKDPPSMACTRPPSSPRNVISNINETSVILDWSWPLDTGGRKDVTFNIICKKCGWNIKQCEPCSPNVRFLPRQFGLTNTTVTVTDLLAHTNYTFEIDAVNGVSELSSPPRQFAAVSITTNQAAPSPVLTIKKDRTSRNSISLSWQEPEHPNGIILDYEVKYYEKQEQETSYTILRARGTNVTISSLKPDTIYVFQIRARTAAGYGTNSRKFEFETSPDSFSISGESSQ

T3: human EphB1 extracellular region-SEAP-His protein (human, UniProt P54762 18-540)
T3 construct: extracellular domain; also called hEphB1-SEAP-His
T3 sequence (looked up): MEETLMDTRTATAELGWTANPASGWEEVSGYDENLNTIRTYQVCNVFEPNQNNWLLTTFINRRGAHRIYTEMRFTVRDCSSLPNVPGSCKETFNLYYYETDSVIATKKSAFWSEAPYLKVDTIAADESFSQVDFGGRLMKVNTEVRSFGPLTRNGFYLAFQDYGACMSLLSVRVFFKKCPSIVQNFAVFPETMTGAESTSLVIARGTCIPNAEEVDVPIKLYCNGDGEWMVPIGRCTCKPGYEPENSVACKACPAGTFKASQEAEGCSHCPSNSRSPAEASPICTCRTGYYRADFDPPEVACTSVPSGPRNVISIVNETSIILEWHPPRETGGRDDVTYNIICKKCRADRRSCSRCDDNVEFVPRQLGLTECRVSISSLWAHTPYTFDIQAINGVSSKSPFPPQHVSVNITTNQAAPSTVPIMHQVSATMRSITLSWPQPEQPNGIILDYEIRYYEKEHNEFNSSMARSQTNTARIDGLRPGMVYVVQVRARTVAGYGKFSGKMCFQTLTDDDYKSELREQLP

T4: human EphA1 extracellular region-SEAP-His protein (human, UniProt P21709 26-547)
T4 construct: extracellular domain; also called hEphA1-SEAP-His
T4 sequence (looked up): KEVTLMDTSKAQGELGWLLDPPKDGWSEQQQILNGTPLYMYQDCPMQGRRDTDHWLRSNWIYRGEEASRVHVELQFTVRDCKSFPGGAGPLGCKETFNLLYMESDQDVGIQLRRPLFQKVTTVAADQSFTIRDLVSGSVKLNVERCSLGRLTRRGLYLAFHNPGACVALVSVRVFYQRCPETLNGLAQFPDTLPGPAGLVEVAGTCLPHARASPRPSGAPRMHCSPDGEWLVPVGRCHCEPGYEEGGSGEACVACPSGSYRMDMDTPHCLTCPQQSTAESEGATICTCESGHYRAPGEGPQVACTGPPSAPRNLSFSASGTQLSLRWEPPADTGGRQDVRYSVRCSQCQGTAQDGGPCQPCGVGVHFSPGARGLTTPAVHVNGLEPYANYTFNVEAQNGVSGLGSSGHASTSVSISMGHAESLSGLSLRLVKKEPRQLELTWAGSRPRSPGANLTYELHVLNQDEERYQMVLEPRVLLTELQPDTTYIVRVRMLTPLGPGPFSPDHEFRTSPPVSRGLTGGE


How the values were obtained:
Experiment in all cases: ELISA
[1] = biological target: T1, human EphA8 extracellular …
[2] = biological target: T2, human EphA3 extracellular …
[3] = biological target: T3, human EphB1 extracellular …
[4] = biological target: T5, human EphA4 extracellular region-SEAP-His protein (human, UniProt P54764 20-547)
T5 construct: also called hEphA4-SEAP-His

[5] = biological target: T4, human EphA1 extracellular …
[6] = biological target: T6, human EphA2 extracellular region-SEAP-His protein (human, UniProt P29317 24-537)
T6 construct: extracellular domain; also called hEphA2-SEAP-His
T6 sequence (P29317 24-537): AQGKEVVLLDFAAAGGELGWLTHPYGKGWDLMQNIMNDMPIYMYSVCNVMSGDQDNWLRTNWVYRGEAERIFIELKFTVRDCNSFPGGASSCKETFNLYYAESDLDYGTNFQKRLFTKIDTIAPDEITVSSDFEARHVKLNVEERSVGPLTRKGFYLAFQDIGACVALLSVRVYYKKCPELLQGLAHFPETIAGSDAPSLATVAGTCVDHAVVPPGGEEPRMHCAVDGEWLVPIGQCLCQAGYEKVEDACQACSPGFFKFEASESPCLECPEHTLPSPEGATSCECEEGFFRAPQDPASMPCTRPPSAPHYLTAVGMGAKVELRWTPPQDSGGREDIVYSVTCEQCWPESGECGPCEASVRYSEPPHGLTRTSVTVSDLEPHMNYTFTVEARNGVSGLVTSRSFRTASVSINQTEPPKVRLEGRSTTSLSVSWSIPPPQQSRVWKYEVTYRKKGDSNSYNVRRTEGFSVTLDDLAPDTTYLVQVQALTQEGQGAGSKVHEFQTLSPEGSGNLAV

T5 sequence (P54764 20-547): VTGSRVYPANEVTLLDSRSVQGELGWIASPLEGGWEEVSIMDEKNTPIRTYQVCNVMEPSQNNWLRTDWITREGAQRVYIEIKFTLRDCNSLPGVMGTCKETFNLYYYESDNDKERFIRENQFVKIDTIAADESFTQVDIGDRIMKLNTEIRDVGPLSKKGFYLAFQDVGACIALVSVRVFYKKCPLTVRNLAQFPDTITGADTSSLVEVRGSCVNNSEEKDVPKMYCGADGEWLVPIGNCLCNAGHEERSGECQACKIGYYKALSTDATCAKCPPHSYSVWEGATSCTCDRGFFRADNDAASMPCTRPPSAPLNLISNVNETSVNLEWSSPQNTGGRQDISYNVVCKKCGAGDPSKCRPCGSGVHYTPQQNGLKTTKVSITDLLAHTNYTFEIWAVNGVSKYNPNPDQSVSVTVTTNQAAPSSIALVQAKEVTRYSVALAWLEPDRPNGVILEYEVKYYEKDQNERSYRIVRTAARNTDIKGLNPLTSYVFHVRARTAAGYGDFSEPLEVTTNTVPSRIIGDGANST

A450 as % of hEphA4-SEAP-His [1] [%]	A450 as % of hEphA4-SEAP-His [2] [%]	A450 as % of hEphA4-SEAP-His [3] [%]	A450 as % of hEphA4-SEAP-His [4] [%]	A450 as % of hEphA4-SEAP-His [5] [%]	A450 as % of hEphA4-SEAP-His [6] [%]	Binder
7	6.8	6.7	100	6.5	6.4	humanized antibody No. 94 (antibody, human IgG1, kappa, human Ig kappa; also called L2-4/HA2) heavy: QVQLVQSGSELKKPGASVKVSCKASGYTFTDYSMHWVRQAPGQGLKWMGWINTETGEPTYAQGFTGRFVFSLDTSVSTAYLQISSLKAEDTAVYYCARIPLYYYGSRYWYFDVWGQGTTVTVSSASTKGPSVFPLAPSSKSTSGGTAALGCLVKDYFPEPVTVSWNSGALTSGVHTFPAVLQSSGLYSLSSVVTVPSSSLGTQTYICNVNHKPSNTKVDKRVEPKSCDKTHTCPPCPAPPAAAPSVFLFPPKPKDTLMISRTPEVTCVVVDVSHEDPEVQFNWYVDGVEVHNAKTKPREEQFNSTFRVVSVLTVVHQDWLNGKEYKCKVSNKGLPAPIEKTISKTKGQPREPQVYTLPPSREEMTKNQVSLTCLVKGFYPSDIAVEWESNGQPENNYKTTPPMLDSDGSFFLYSKLTVDKSRWQQGNVFSCSVMHEALHNHYTQKSLSLSPG light: EIVMTQSPATLSVSPGERATLSCRASENIYRNLAWYQQKPGQSPRLLIYAATNLADGIPARFSGSGSGTEYTLTISSLQSEDFAVYYCQHFWGTPWTFGQGTKVEIKRTVAAPSVFIFPPSDEQLKSGTASVVCLLNNFYPREAKVQWKVDNALQSGNSQESVTEQDSKDSTYSLSSTLTLSKADYEKHKVYACEVTHQGLSSPVTKSFNRGEC
5.3	5.6	5.4	100	5.6	5.7	humanized antibody No. 71 (antibody, human IgG1, kappa, human Ig kappa; also called L2-4/HA4) heavy: QIQLVQSGSELKKPGASVKVSCKASGYTFTDYSMHWVRQAPGQGLKWMGWINTETGEPTYAQGFTGRFVFSLDTSVSTAYLQISSLKAEDTAVYYCARIPLYYYGSRYWYFDVWGQGTTVTVSSASTKGPSVFPLAPSSKSTSGGTAALGCLVKDYFPEPVTVSWNSGALTSGVHTFPAVLQSSGLYSLSSVVTVPSSSLGTQTYICNVNHKPSNTKVDKRVEPKSCDKTHTCPPCPAPPAAAPSVFLFPPKPKDTLMISRTPEVTCVVVDVSHEDPEVQFNWYVDGVEVHNAKTKPREEQFNSTFRVVSVLTVVHQDWLNGKEYKCKVSNKGLPAPIEKTISKTKGQPREPQVYTLPPSREEMTKNQVSLTCLVKGFYPSDIAVEWESNGQPENNYKTTPPMLDSDGSFFLYSKLTVDKSRWQQGNVFSCSVMHEALHNHYTQKSLSLSPG light: EIVMTQSPATLSVSPGERATLSCRASENIYRNLAWYQQKPGQSPRLLIYAATNLADGIPARFSGSGSGTEYTLTISSLQSEDFAVYYCQHFWGTPWTFGQGTKVEIKRTVAAPSVFIFPPSDEQLKSGTASVVCLLNNFYPREAKVQWKVDNALQSGNSQESVTEQDSKDSTYSLSSTLTLSKADYEKHKVYACEVTHQGLSSPVTKSFNRGEC
5.8	5.8	5.7	100	6	5.7	humanized antibody No. 73 (antibody, human IgG1, kappa, human Ig kappa; also called L2-4/HK4) heavy: QIQLVQSGSELKKPGASVKVSCKASGYTFTDYSMHWVRQAPGQGLKWMGWINTETGEPTYADDFKGRFVFSLDTSVSTAYLQISSLKAEDTAVYYCARIPLYYYGSRYWYFDVWGQGTTVTVSSASTKGPSVFPLAPSSKSTSGGTAALGCLVKDYFPEPVTVSWNSGALTSGVHTFPAVLQSSGLYSLSSVVTVPSSSLGTQTYICNVNHKPSNTKVDKRVEPKSCDKTHTCPPCPAPPAAAPSVFLFPPKPKDTLMISRTPEVTCVVVDVSHEDPEVQFNWYVDGVEVHNAKTKPREEQFNSTFRVVSVLTVVHQDWLNGKEYKCKVSNKGLPAPIEKTISKTKGQPREPQVYTLPPSREEMTKNQVSLTCLVKGFYPSDIAVEWESNGQPENNYKTTPPMLDSDGSFFLYSKLTVDKSRWQQGNVFSCSVMHEALHNHYTQKSLSLSPG light: EIVMTQSPATLSVSPGERATLSCRASENIYRNLAWYQQKPGQSPRLLIYAATNLADGIPARFSGSGSGTEYTLTISSLQSEDFAVYYCQHFWGTPWTFGQGTKVEIKRTVAAPSVFIFPPSDEQLKSGTASVVCLLNNFYPREAKVQWKVDNALQSGNSQESVTEQDSKDSTYSLSSTLTLSKADYEKHKVYACEVTHQGLSSPVTKSFNRGEC

Source: patent US20190077860A1 (EISAI R AND D MANAGEMENT, published 2019)
